{"source": "patent US20240327502A1", "about": "(Merck Sharp & Dohme, published 2024)", "binders": {"B1": {"name": "M2D2 (antibody, V domains shown)", "VH": "QVQLVQSGAEVKKPGASVKVSCKASGYNFDNYYMSWVRQAPGQGLEWLGIIDPSGGRISYAPKFQGRVTLTRDTSTSTVYMELRGLRFEDTALYYCARLEATHEGPWGQGTLVTVSS", "VL": "QSVLTQPPSASGTPGQRVTISCSGSNSNIGSSTVNWYQQLPGTAPKLLIYSDNHRPSGVPDRFSGSRSGTSASLVISGLHSEDEADYYCGTWDDGLNGPYVFGTGTKVTVL", "notes": "IgG"}}, "key": {"Q434H": {"target": "T1, Q434H", "T1 construct": "also called unprocessed hMPV PreF Q434H", "assay": "ELISA; Ni-NTA plate coated with Expi293 supernatant containing the His-tagged antigen; antibody titrated; OD450"}, "[1]": {"target": "T2, unprocessed hMPV PreF trimeric antigen (human metapneumovirus strain B2)", "T2 construct": "also called unprocessed hMPV WT PreF trimer; hMPV WT trimer", "assay": "ELISA; Ni-NTA plate coated with Expi293 supernatant containing the His-tagged antigen; antibody titrated; OD450"}, "[2]": {"target": "unprocessed hMPV PreF V231A/G264R (human metapneumovirus strain B2)", "assay": "ELISA; Ni-NTA plate coated with Expi293 supernatant containing the His-tagged antigen; antibody titrated; OD450"}, "[3]": {"target": "unprocessed hMPV PreF G264R (human metapneumovirus strain B2)", "assay": "ELISA; Ni-NTA plate coated with Expi293 supernatant containing the His-tagged antigen; antibody titrated; OD450"}, "[4]": {"target": "unprocessed hMPV PreF G264R/Q434H (human metapneumovirus strain B2)", "assay": "ELISA; Ni-NTA plate coated with Expi293 supernatant containing the His-tagged antigen; antibody titrated; OD450"}, "V231A": {"target": "T3, V231A", "T3 construct": "also called unprocessed hMPV PreF V231A", "assay": "ELISA; Ni-NTA plate coated with Expi293 supernatant containing the His-tagged antigen; antibody titrated; OD450"}, "[5]": {"target": "unprocessed hMPV PreF K138Q (human metapneumovirus strain B2)", "assay": "ELISA; Ni-NTA plate coated with Expi293 supernatant containing the His-tagged antigen; antibody titrated; OD450"}, "L219Y": {"target": "T4, L219Y", "T4 construct": "also called MPV-F L219Y", "assay": "ELISA on supernatant of cells transiently transfected with the MPV-F construct; antibody titrated; OD450"}, "R253A": {"target": "T5, R253A", "T5 construct": "also called MPV-F R253A", "assay": "ELISA on supernatant of cells transiently transfected with the MPV-F construct; antibody titrated; OD450"}, "R198A": {"target": "T6, R198A", "T6 construct": "also called MPV-F R198A", "assay": "ELISA on supernatant of cells transiently transfected with the MPV-F construct; antibody titrated; OD450"}, "R329A": {"target": "T7, R329A", "T7 construct": "also called MPV-F R329A", "assay": "ELISA on supernatant of cells transiently transfected with the MPV-F construct; antibody titrated; OD450"}, "N202A": {"target": "T8, N202A", "T8 construct": "also called MPV-F N202A", "assay": "ELISA on supernatant of cells transiently transfected with the MPV-F construct; antibody titrated; OD450"}, "A216Y": {"target": "T9, A216Y", "T9 construct": "also called MPV-F A216Y", "assay": "ELISA on supernatant of cells transiently transfected with the MPV-F construct; antibody titrated; OD450"}, "D209Y": {"target": "T10, D209Y", "T10 construct": "also called MPV-F D209Y", "assay": "ELISA on supernatant of cells transiently transfected with the MPV-F construct; antibody titrated; OD450"}, "A249Y": {"target": "T11, A249Y", "T11 construct": "also called MPV-F A249Y", "assay": "ELISA on supernatant of cells transiently transfected with the MPV-F construct; antibody titrated; OD450"}, "MPV-F (Example 7)": {"target": "T12, MPV-F (Example 7) (human metapneumovirus, UniProt Q6WB98 19-489)", "T12 construct": "also called hMPV F monomer", "assay": "ELISA on supernatant of cells transiently transfected with the MPV-F construct; antibody titrated; OD450"}, "N210A": {"target": "T13, N210A", "T13 construct": "also called MPV-F N210A", "assay": "ELISA on supernatant of cells transiently transfected with the MPV-F construct; antibody titrated; OD450"}, "[6]": {"target": "F protein of hMPV A virus (human metapneumovirus subtype A)", "assay": "cell-based or functional assay"}, "[7]": {"target": "F protein of hMPV B virus (human metapneumovirus subtype B)", "assay": "cell-based or functional assay"}, "[8]": {"target": "F protein of RSV B/Washington virus (respiratory syncytial virus B, …)", "assay": "cell-based or functional assay"}}, "data": [{"binder": "B1", "values": [{"measurement": "EC50 (read off the curve)", "setting": "Q434H", "result": "~0.01", "unit": "µg/mL"}, {"measurement": "EC50 (read off the curve)", "setting": "[1]", "result": "~0.004", "unit": "µg/mL"}, {"measurement": "binding result", "setting": "[2]", "result": "binds"}, {"measurement": "binding result", "setting": "[3]", "result": "binds"}, {"measurement": "binding result", "setting": "[4]", "result": "binds"}, {"measurement": "EC50 (read off the curve)", "setting": "V231A", "result": "~0.006", "unit": "µg/mL"}, {"measurement": "EC50 (read off the curve)", "setting": "[5]", "result": "~0.006", "unit": "µg/mL"}, {"measurement": "EC50 (read off the curve)", "setting": "L219Y", "result": "~0.05", "unit": "µg/mL"}, {"measurement": "EC50 (read off the curve)", "setting": "R253A", "result": "~0.04", "unit": "µg/mL"}, {"measurement": "EC50 (read off the curve)", "setting": "R198A", "result": "~0.02", "unit": "µg/mL"}, {"measurement": "EC50 (read off the curve)", "setting": "R329A", "result": "~0.03", "unit": "µg/mL"}, {"measurement": "EC50 (read off the curve)", "setting": "N202A", "result": "~0.03", "unit": "µg/mL"}, {"measurement": "EC50 (read off the curve)", "setting": "A216Y", "result": "~0.04", "unit": "µg/mL"}, {"measurement": "EC50 (read off the curve)", "setting": "D209Y", "result": "~0.04", "unit": "µg/mL"}, {"measurement": "EC50 (read off the curve)", "setting": "A249Y", "result": "~0.05", "unit": "µg/mL"}, {"measurement": "EC50 (read off the curve)", "setting": "MPV-F (Example 7)", "result": "~0.02", "unit": "µg/mL"}, {"measurement": "EC50 (read off the curve)", "setting": "N210A", "result": "~0.02", "unit": "µg/mL"}, {"measurement": "PRNT IC50", "setting": "[6]", "result": 0.0296, "unit": "µg/mL"}, {"measurement": "PRNT IC50", "setting": "[7]", "result": 0.0584, "unit": "µg/mL"}, {"measurement": "PRNT IC50", "setting": "[8]", "result": 0.0039, "unit": "µg/mL"}]}]}
